Molecular target: human SHP2 catalytic domain (human) (UniProt Q06124)

IC50 of inhibition of SHP2 CD PTP activity by isolated N-SH2 (Figure S2): 15 µM
Substance: isolated SHP2 N-SH2 domain (domain or fragment)

— paper PMC9089384
